Assays:
Test in all cases: cell_activity
[1] = test system: ZFN 46801 (synthetic); settings: paired with 47923, K562, 25 ng each
[2] = test system: ZFN 51862 (synthetic); settings: paired with 51949, CD34+ cells, 500 ng mRNA each
[3] = test system: ZFN 51478 (synthetic); settings: paired with 51536, CD34+ cells
[4] = test system: ZFN 51487 (synthetic); settings: paired with 51536, CD34+ cells
[5] = test system: ZFN 51484 (synthetic); settings: paired with 51536, CD34+ cells
[6] = test system: ZFN 51477 (synthetic); settings: paired with 51536, CD34+ cells
[7] = test system: ZFN 51856 (synthetic); settings: paired with 51949, CD34+ cells, 500 ng mRNA each
[8] = test system: ZFN 51990 (synthetic); settings: paired with 51857, CD34+ cells, 500 ng mRNA each
[9] = test system: ZFN 51541 (synthetic); settings: paired with 51446, CD34+ cells
[10] = test system: ZFN 51536 (synthetic); settings: paired with 51446, CD34+ cells
[11] = test system: ZFN 52032 (synthetic); settings: paired with 51857, CD34+ cells, 500 ng mRNA each
[12] = test system: ZFN 52015 (synthetic); settings: paired with 51857, CD34+ cells, 500 ng mRNA each
[13] = test system: ZFN 51982 (synthetic); settings: paired with 51857, CD34+ cells, 500 ng mRNA each
[14] = test system: ZFN 51993 (synthetic); settings: paired with 51857, CD34+ cells, 500 ng mRNA each
[15] = test system: ZFN 51535 (synthetic); settings: paired with 51446, CD34+ cells
[16] = test system: ZFN 51979 (synthetic); settings: paired with 51857, CD34+ cells, 500 ng mRNA each
[17] = test system: ZFN 47923 (synthetic); settings: paired with 46801, K562, 25 ng each
[18] = test system: ZFN 51556 (synthetic); settings: paired with 51446, CD34+ cells
[19] = test system: ZFN 51534 (synthetic); settings: paired with 51446, CD34+ cells
[20] = test system: ZFN 51519 (synthetic); settings: paired with 51446, CD34+ cells
[21] = test system: ZFN 51463 (synthetic); settings: paired with 51536, CD34+ cells
[22] = test system: ZFN 51446 (synthetic); settings: paired with 51536, CD34+ cells

AAAGCAACTGTTAGCTTGCACTAGACTA (double strand) [BCL11A +58 enhancer left half-site, 6-finger]
activity [1]: 9.3 % NHEJ
activity [2]: 18.4 % indels
activity [3]: 72.3 % indels
activity [4]: 66.3 % indels
activity [5]: 75.2 % indels
activity [6]: 72 % indels
activity [7]: 38.4 % indels

CACAGGCTCCAGGAAGGGTTTGGCCTCT (double strand) [BCL11A +58 enhancer right half-site]
activity [8]: 51 % indels
activity [9]: 87.8 % indels
activity [10]: 83.7 % indels
activity [11]: 53.9 % indels
activity [12]: 35.2 % indels
activity [13]: 30.9 % indels
activity [14]: 43.9 % indels
activity [15]: 82.2 % indels
activity [16]: 39.8 % indels
activity [17]: 9.3 % NHEJ
activity [18]: 74.1 % indels
activity [19]: 84.2 % indels
activity [20]: 81.5 % indels

AAAGCAACTGTTAGCTTGCACTAGACTA (double strand) [BCL11A +58 enhancer left half-site, 4-finger]
activity [21]: 82.7 % indels
activity [22]: 83.7 % indels
